Experiments:
purified protein = substrate: O=[N+]([O-])c1ccc(O[C@@H]2O[C@H](CO)[C@@H](O)[C@H](O)[C@H]2O)cc1; assay: purified protein; conditions: Buffer J pH 5.5 (sodium acetate, sodium cholate, 0.1% Tween 20), 37 °C, 15 min
[1] = substrate: CCCCCCCCC/C=C\CC/C=C/[C@@H](O)[C@H](CO[C@@H]1O[C@H](CO)[C@@H](O)[C@H](O)[C@H]1O)NC(=O)[C@H](O)CCCCCCCCCCCCCC; assay: ceramide release by LC-ESI-MS/MS, Hanes-Woolf plot; type: biochemical, Oryza sativa; conditions: Buffer J pH 5.5 (sodium acetate, sodium cholate, 0.1% Tween 20), 37 °C, 15 min
Description: (§1) ceramide release by LC-ESI-MS/MS, Hanes-Woolf plot on Os3BGlu6 (GCase purified from rice leaves)

[2] = substrate: CCCCCCCCC/C=C/CC/C=C/[C@@H](O)[C@H](CO[C@@H]1O[C@H](CO)[C@@H](O)[C@H](O)[C@H]1O)NC(=O)[C@H](O)CCCCCCCCCCCCCC; assay: ceramide release by LC-ESI-MS/MS, Hanes-Woolf plot; type: biochemical, Oryza sativa; conditions: Buffer J pH 5.5 (sodium acetate, sodium cholate, 0.1% Tween 20), 37 °C, 15 min
Description: as §1

[3] = substrate: CCCCCCCCCCCCC/C=C/[C@@H](O)[C@H](CO[C@@H]1O[C@H](CO)[C@@H](O)[C@H](O)[C@H]1O)NC(=O)CCCCCNc1ccc([N+](=O)[O-])c2nonc12; assay: hydrolysis, Hanes-Woolf plot; type: biochemical, Oryza sativa; conditions: Buffer J pH 5.5 (sodium acetate, sodium cholate, 0.1% Tween 20), 37 °C, 15 min, labelled compound (NBD)
[4] = substrate: CCCCCCCCCCCCC/C=C/[C@@H](O)[C@H](CO[C@@H]1O[C@H](CO)[C@@H](O)[C@H](O)[C@H]1O)NC(=O)CCCCCCC; assay: ceramide release by HPLC, Hanes-Woolf plot; type: biochemical, Oryza sativa; conditions: Buffer J pH 5.5 (sodium acetate, sodium cholate, 0.1% Tween 20), 37 °C, 15 min
Description: (§2) ceramide release by HPLC, Hanes-Woolf plot on Os3BGlu6 (GCase purified from rice leaves)

[5] = substrate: CCCCCCCCCCCC/C=C/[C@@H](O)C(=O)N[C@@H](CO[C@@H]1O[C@H](CO)[C@@H](O)[C@H](O)[C@H]1O)[C@H](O)/C=C/CC/C=C(\C)CCCCCCCCC; assay: ceramide release by HPLC, Hanes-Woolf plot; type: biochemical, Oryza sativa; conditions: Buffer J pH 5.5 (sodium acetate, sodium cholate, 0.1% Tween 20), 37 °C, 15 min
Description: as §2

[6] = substrate: CCCCCCCCCCCCC/C=C/[C@@H](O)[C@H](CO[C@@H]1O[C@H](CO)[C@@H](O)[C@H](O)[C@H]1O)NC(=O)CCCCCCCCCCC; assay: ceramide release by HPLC, Hanes-Woolf plot; type: biochemical, Oryza sativa; conditions: Buffer J pH 5.5 (sodium acetate, sodium cholate, 0.1% Tween 20), 37 °C, 15 min
Description: as §2

B1: Os3BGlu6 (GCase purified from rice leaves) (Oryza sativa Japonica Group) (protein)
chain: QQSGGGLTRGSFPEGFVFGTASAAYQYEGAVKEDGRGQTIWDTFAHTFGKITDFSNADVAVDQYHRFEEDIQLMADMGMDAYRFSIAWSRIYPNGVGQVNQAGIDHYNKLIDALLAKGIQPYVTLYHWDLPQALEDKYKGWLDRQIVDDFAAYAETCFREFGDRVKHWITLNEPHTVAIQGYDAGLQAPGRCSVLLHLYCKAGNSGTEPYVVAHHFILAHAAAASIYRTKYKATQNGQLGIAFDVMWFEPMSNTTIDIEAAKRAQEFQLGWFADPFFFGDYPATMRARVGERLPRFTADEAAVVKGALDFVGINHYTTYYTRHNNTNIIGTLLNNTLADTGTVSLPFKNGKPIGDRANSIWLYIVPRGMRSLMNYVKERYNSPPVYITENGMDDSNNPFISIKDALKDSKRIKYHNDYLTNLAASIKEDGCDVRGYFAWSLLDNWEWAAGYSSRFGLYFVDYKDNLKRYPKNSVQWFKALLKT
Km (purified protein): 3825.3 ± 201.2 µM
kcat (purified protein): 285 s⁻¹
kcat/Km (purified protein): 75000 M⁻¹ s⁻¹
Km [1]: 19.8 ± 0.8 µM
kcat [1]: 116 ± 2.9 s⁻¹
kcat/Km [1]: 5.85e+06 ± 190000 M⁻¹ s⁻¹
Km [2]: 50.0 ± 2.4 µM
kcat [2]: 146 ± 4.7 s⁻¹
kcat/Km [2]: 2.92e+06 ± 50000 M⁻¹ s⁻¹
Km [3]: 57.1 ± 7.9 µM
kcat [3]: 112 ± 11.8 s⁻¹
kcat/Km [3]: 1.97e+06 ± 120000 M⁻¹ s⁻¹
Km [4]: 47.5 ± 3.8 µM
kcat [4]: 156 ± 8.6 s⁻¹
kcat/Km [4]: 3.29e+06 ± 150000 M⁻¹ s⁻¹
Km [5]: 41.1 ± 4.3 µM
kcat [5]: 151 ± 9.1 s⁻¹
kcat/Km [5]: 3.7e+06 ± 280000 M⁻¹ s⁻¹
Km [6]: 46.1 ± 5.1 µM
kcat [6]: 121 ± 4.4 s⁻¹
kcat/Km [6]: 2.64e+06 ± 190000 M⁻¹ s⁻¹

Source: PMC8571087, “Sphingadienine-1-phosphate levels are regulated by a novel glycoside hydrolase family 1 glucocerebrosidase widely distributed in seed plants” (The Journal of Biological Chemistry, 2021)
